The record followed here is US20120213786A1 (ONCOMED PHARMACEUTICALS, published 2012).

This test has as its target T1, recombinant human Notch1 protein (human, UniProt P46531 1426-1731, limits assumed).
T1 construct: also called antigen
T1 sequence (looked up): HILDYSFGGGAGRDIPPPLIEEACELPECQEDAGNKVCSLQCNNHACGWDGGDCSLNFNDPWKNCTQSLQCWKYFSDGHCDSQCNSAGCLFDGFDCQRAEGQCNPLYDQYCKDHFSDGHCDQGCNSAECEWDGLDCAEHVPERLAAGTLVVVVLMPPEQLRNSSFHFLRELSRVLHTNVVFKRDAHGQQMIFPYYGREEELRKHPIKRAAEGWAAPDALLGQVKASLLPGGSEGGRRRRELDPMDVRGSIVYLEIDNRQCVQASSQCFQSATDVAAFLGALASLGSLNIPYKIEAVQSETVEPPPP
The test can be described thus: SPR (Biacore 2000), recombinant human Notch1 amine-coupled to CM5 chip, antibody injected, global fit. On the procedure: The affinities for human and mouse Notch1 were determined using a Biacore 2000 instrument. Briefly, recombinant human and mouse Notch1 proteins were immobilized on a CM5 chip using standard amine based chemistry (NHS/EDC). Different antibody concentrations were injected over the protein surfaces and kinetic data were collected over time. The data was fit using the simultaneous global fit equation to yield dissociation constants (KD, nM) for each Notch1 (Table 2).
In general terms: In SPR one partner is held on a chip, and binding of the other changes the refractive index at the surface.

For orientation: Kd means the concentration at which binding is half-saturated.

B1: murine monoclonal antibody 52M51 (antibody, mouse IgG1, V domains shown)
VH: QVQLQQSGAELMKPGASVKISCKAAGYTMRGYWIEWIKQRPGHGLEWIGQILPGTGRTNYNEKFKGKATFTADTSSNTANMQLSSLTSEDSAVYYCARFDGNYGYYAMDYWGQGSSVTVSS
VL: QAVVTQESALTTSPGETVTLTCRSSTGAVTTSNYANWVQEKPDHLFTGLIGGTNNRAPGVPARFSGSLIGDKAALTITGAQTEDEAIYFCALWYSNHWVFGGGTKLTVLG
notes: Hybridoma-derived mouse antibody; also called anti-Notch1 antibody 52M51; ATCC PTA-9405
Consider B1, for which the Kd stood at 2.86 nM.

B2: humanized antibody 52M51H4L3 (antibody, human IgG2, lambda, V domains shown)
VH: QVQLVQSGAEVKKPGASVKISCKVSGYTLRGYWIEWVRQAPGKGLEWIGQILPGTGRTNYNEKFKGRVTMTADTSTDTAYMELSSLRSEDTAVYYCARFDGNYGYYAMDYWGQGTTVTVSS
VL: SQAVVTQEPSLTVSPGGTVTLTCRSSTGAVTTSNYANWFQQKPGQAPRTLIGGTNNRAPGVPARFSGSLLGGKAALTLSGAQPEDEAEYYCALWYSNHWVFGGGTKLTVLG
notes: Heavy chain 52M51-H4 (human IgG2 constant region) with light chain 52M51 L3 (human IgLC1 constant region); also called humanized variant of 52M51; ATCC PTA-9549
As for B2, the dissociation constant (Kd) is 4.33 nM.

B3: humanized antibody 52M51H4L4 (antibody, human IgG2, lambda, V domains shown)
VH: B2 VH
VL: SQTVVTQEPSFSVSPGGTVTLTCRSSTGAVTTSNYANWYQQTPGQAPRTLIGGTNNRAPGVPDRFSGSILGNKAALTITGAQADDESDYYCALWYSNHWVFGGGTKLTVLG
notes: Heavy chain 52M51-H4 (human IgG2 constant region) with light chain 52M51 L4 (human IgLC1 constant region)
With B3, the Kd is 7.35 nM.
